Measured values taken from IntAct's records for PubMed 10749989.

B1: Twist-related protein 1 (Homo sapiens), Q15672 (parent)
chain: MMQDVSSSPVSPADDSLSNSEEEPDRQQPPSGKRGGRKRRSSRRSAGGGAGPGGAAGGGVGGGDEPGSPAQGKRGKKSAGCGGGGGAGGGGGSSSGGGSPQSYEELQTQRVMANVRERQRTQSLNEAFAALRKIIPTLPSDKLSKIQTLKLAARYIDFLYQVLQSDELDSKMASCSYVAHERLSYAFSVWRMEGAWSMSASH

What was measured:
[1] = variants of: B1; settings: with TCF3, P15923-1
[2] = variants of: B1; settings: with TCF3, P15923-1; remark: listed apart in the source

Chain of TCF3, P15923-1 (P15923 whole entry): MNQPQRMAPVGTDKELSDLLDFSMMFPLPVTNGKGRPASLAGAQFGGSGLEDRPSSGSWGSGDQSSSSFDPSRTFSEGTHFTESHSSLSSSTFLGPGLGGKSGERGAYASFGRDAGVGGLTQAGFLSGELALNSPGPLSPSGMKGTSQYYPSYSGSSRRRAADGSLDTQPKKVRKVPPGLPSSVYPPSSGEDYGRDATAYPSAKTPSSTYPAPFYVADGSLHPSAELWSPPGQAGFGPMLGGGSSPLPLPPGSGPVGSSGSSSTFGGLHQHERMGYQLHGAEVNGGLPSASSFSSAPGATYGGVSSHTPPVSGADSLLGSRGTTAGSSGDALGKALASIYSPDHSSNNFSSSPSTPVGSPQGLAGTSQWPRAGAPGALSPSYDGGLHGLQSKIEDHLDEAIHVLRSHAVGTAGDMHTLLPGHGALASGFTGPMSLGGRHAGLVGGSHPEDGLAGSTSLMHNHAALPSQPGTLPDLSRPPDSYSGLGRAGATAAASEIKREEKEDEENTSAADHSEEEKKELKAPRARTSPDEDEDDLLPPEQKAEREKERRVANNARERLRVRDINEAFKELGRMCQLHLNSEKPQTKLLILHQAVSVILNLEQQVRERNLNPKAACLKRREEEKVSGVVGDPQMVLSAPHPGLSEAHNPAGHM

effect of a mutation on the interaction [1]	effect of a mutation on the interaction [2]	Variant
disrupting interaction strength	decreasing interaction strength	MMQDVSSSPVSPADDSLSNSEEEPDRQQPPSGKRGGRKRRSSRRSAGGGAGPGGAAGGGVGGGDEPGSPAQGKRGKKSAGCGGGGGAGGGGGSSSGGGSPQSYEELQTQRVMANVRERQRTQSLNEAFPALRKIIPTLPSDKLSKIQTLKLAARYIDFLYQVLQSDELDSKMASCSYVAHERLSYAFSVWRMEGAWSMSASH [A129P]
disrupting interaction strength	decreasing interaction strength	MMQDVSSSPVSPADDSLSNSEEEPDRQQPPSGKRGGRKRRSSRRSAGGGAGPGGAAGGGVGGGDEPGSPAQGKRGKKSAGCGGGGGAGGGGGSSSGGGSPQSYEELQTQRVMANVRERQRTQSLNEAFAALRKIIPTLPSDKLSKIQTLKLAARYIDFFYQVLQSDELDSKMASCSYVAHERLSYAFSVWRMEGAWSMSASH [L159F]
decreasing interaction strength	with no effect	MMQDVSSSPVSPADDSLSNSEEEPDRQQPPSGKRGGRKRRSSRRSAGGGAGPGGAAGGGVGGGDEPGSPAQGKRGKKSAGCGGGGGAGGGGGSSSGGGSPQSYEELQTQRVMANVRERQRTQSLNEAFAALRKIIPTLPSDKLSEIQTLKLAARYIDFLYQVLQSDELDSKMASCSYVAHERLSYAFSVWRMEGAWSMSASH [K145E]
